In PMC4482361 (Organic & biomolecular chemistry, 2011):

T1: thymidine monophosphate kinase (TMK) (Escherichia coli, UniProt P0A720)
T1 sequence (P0A720 1-213): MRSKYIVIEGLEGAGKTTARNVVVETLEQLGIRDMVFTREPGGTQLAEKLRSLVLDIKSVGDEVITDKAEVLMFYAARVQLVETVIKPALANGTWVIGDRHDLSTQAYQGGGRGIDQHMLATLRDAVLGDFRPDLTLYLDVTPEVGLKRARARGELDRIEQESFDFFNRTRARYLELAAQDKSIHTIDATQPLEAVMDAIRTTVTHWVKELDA

B1: RavIM (TDP-4-keto-6-deoxy-D-glucose-3,4-ketoisomerase) (enzyme, Streptomyces ravidus, UniProt D1H0I6 1-156, looked up)
chain: MTDTTAATGTTAGTDVSRVGKVRPCALMKLQTIGDPRGQLAVVEGAKDIGFPVKRLFYLYDLPTSSVRGDHAHRNLEQFVIPINGSFDVAVDDTVDTAVCRLDDPGQGLYIGPMVWNSLVNFSEGAIALVLASEHYDEADYYRRYDEFLADAGARP
B2: RavAMT (TDP-3-keto-6-deoxy-D-galactose-3-aminotransferase) (enzyme, Streptomyces ravidus, UniProt D1H0I5 1-369, looked up)
chain: MKVPYLDLKGPHTEIRAELDAAYHRVVDSGWFVLGEEVRAFEEEYAAYCGAAHCVSVATGCDALELALRALDIGPGDEVVVPSATYIATWLAVSETGADVVPVEVDPDTHLLDPAAVEAAVTPATRAVMPVHLYGQPADLPALRRVADRHGLALIDDAAQAHGARLNGTRVGGGGLATATAFSFYPGKNLGALGDGGGILTDDAELAERLRLLRNYGSRRKYHHELKSTNSRLDELHAAVLRAKLPHLDRWNARRAEIAERYRAAFADLPGLRPTAVPEGAEPSWHLYVVCCDDRDAVQRSLTDAGVGTLIHYPVPVHLSPAYADEKRWPAGAFPRAEAIAAQVLSLPMGPHLSDADVSYVIEAVRAAV
B3: RavNMT (TDP-3-amino-3,6-dideoxy-D-galactose-N,N-dimethyltransferase) (enzyme, Streptomyces ravidus, UniProt D1H0I7 1-265, looked up)
chain: MSTLSVSQPGTPPTPADVEQAYGAEHADVYDAIYRGRGRDYAAEADAFLAVLRTRRPEITSLLDVACGTGAHLAALRGSVDHVEGVELSPWMHTLATRQLPGVAVHQDDMRSFNLSRRFSAVTCLFSSVGYLKSVEDLRRTLRTFRAHVAPGGVALVEPWWFPETFLDGYVGSSLVEVDGRTIARVSHTVRAGSTSRMTVEYTVAEPVNGVRRFSDLHVLSLFTREQYEDAFERAGFAVEFLKDGPSGRGLFLGVAPETTDGGPR

How the values were obtained:
[1] = target: T1, thymidine monophosphate kinase (TMK); experiment: coupled assay with ACK, HPLC; format: biochemical; conditions: phosphate donor; same
SEC = target: the molecule itself; experiment: SEC

Molecule	coupled assay with ACK, HPLC [1]	stoichiometry N (SEC)
Nc1ncnc2c1ncn2[C@@H]1O[C@H](COP(=O)(O)OP(=O)(O)OP(=O)(O)O)[C@@H](O)[C@H]1O [ATP]	ATP serves as a phosphate donor thereby converting into ADP	–
B1	–	2
B2	–	2
B3	–	2
